US20210284749A1 (ABL BIO, published 2021)

T1: recombinant human BCMA (ELISA antigen, construct not specified) (human, UniProt Q02223 1-54)
T1 construct: Fc 1-51; Fc/His 1-51; Fc 4-48) was coated in these ELISAs; also called recombinant BCMA; recombinant protein
T1 sequence: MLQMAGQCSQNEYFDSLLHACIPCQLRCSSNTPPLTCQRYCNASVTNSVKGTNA

T2: rat BCMA (1-49) fused to the Fc region of human IgG1 (rat; human)
T2 construct: Sino Biological Inc. 80156-R01H; also called 80156-R01H; not shown: Fc region of human IgG1
T2 chain: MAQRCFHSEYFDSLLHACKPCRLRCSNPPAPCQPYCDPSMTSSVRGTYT

T3: mouse BCMA (1-49) fused to the Fc region of human IgG1 (mouse; human, UniProt O88472 1-49)
T3 construct: Sino Biological Inc. 50076-M01H; also called 50076-M01H; not shown: Fc region of human IgG1
T3 chain: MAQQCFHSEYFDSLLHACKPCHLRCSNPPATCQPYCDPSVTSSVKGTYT

T4: human BCMA expressed on cell surface (H929, OPM-2, CHOK1-hBCMA cells) (human, UniProt Q02223 1-184)
T4 construct: also called cell-surface BCMA; BCMA on cell surface
T4 sequence: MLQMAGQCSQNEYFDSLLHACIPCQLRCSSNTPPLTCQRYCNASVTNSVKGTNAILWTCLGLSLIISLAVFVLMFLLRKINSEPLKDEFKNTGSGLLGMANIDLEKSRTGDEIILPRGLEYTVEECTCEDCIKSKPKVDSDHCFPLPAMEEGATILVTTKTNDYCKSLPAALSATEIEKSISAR


How the values were obtained:
[1] = biological target: T1, recombinant human BCMA (ELISA antigen, …); test: ELISA on 100 ng coated human BCMA, antibody titrated, anti-human Fab HRP, absorbance 450 nm
Experimental: (§1) 100 ng of human, monkey, mouse, and rat BCMA antigens prepared in Example 1.1 were coated on the bottom of the plate, and then coated with 3% BSA to block nonspecific binding. Using the selected anti-BCMA IgG antibodies as primary antibodies, and the anti-human Fab HRP (1:20000 dilution) as a secondary antibody, ELISA assay was performed as described in Example 1.3.
(§2) Absorbancies at 450 nm measured with a microplate reader are shown in FIG. 3, and half maximal effective concentrations (EC₅₀) (nM) are shown in Table 9.

[2] = biological target: T2, rat BCMA (1-49) fused to the Fc region …; test: ELISA on 100 ng coated rat BCMA, antibody titrated, anti-human Fab HRP, absorbance 450 nm
Experimental: as §1, §2

[3] = biological target: T3, mouse BCMA (1-49) fused to the Fc …; test: ELISA, 100 ng coated antigen
Experimental: as §1, §2

[4] = biological target: T2, rat BCMA (1-49) fused to the Fc region …; test: ELISA, 100 ng coated antigen
Experimental: as §1, §2

[5] = biological target: T4, human BCMA expressed on cell surface …; test: FACS on H929 cells, 10 µg/ml antibody, anti-human Fc-FITC; open histogram shifted right of the filled control
Experimental: (§3) Multiple myeloma cancer cells H929 (ATCC, CRL9068™) and OPM-2 cell line (DSMZ, ACC 50), which are known to express BCMA, were prepared, and human BCMA-overexpressed CHOK1-hBCMA cell line (constructed by ABIBio) were prepared.
(§4) 10 μg/ml of the seven IgG antibodies (B58, 5A6, 5D5, 5B5, 1H, 2G, and 5G) purified in Example 1.4 was added to the prepared cells, incubated at 4° C. for 1 hour, and then washed two times with a PBS buffer solution. The anti-human Fc-FITC was diluted in 1:400, incubated at 4° C. for 1 hour, and then washed with a PBS buffer solution. These processes were repeated. In FIGS. 2A and 2B, MFI indicates mean fluorescence intensity.

[6] = biological target: T3, mouse BCMA (1-49) fused to the Fc …; test: ELISA on 100 ng coated mouse BCMA, antibody titrated, anti-human Fab HRP, absorbance 450 nm
Experimental: as §1, §2

[7] = biological target: T4, human BCMA expressed on cell surface …; test: FACS on OPM-2 cells, 10 µg/ml antibody, anti-human Fc-FITC; open histogram shifted right of the filled control
Experimental: as §3, §4

Binder	EC50 (read off the curve) [1] [mg/L]	EC50 (read off the curve) [2] [mg/L]	EC50 [3] [µM]	EC50 [4] [µM]	MFI [5]	EC50 (read off the curve) [6] [mg/L]	MFI [7]	binding result [2]	binding result [6]
anti-BCMA IgG antibody 5D5 (antibody, V domains shown, also called 5D5 WT; 5D5 antibody) VH: EVQLLESGGGLVQPGGSLRLSCAASGFTFSDYGLSWVRQAPGKGLEWVSLIDSSGSSTFYADSVKGRFTISRDNSKNTLYLQMNSLRAEDTAVYYCAKEHGLFDSWGQGTLVTVSS VL: EIVLTQSPGTLSLSPGERATLSCKASQDIDDDINWYQQKPGQAPRLLIYDASLRATGIPDRFSGSGSGTDFTLTISRLEPEDFAVYYCQQSLRTPITFGQGTKLEIKR	~0.01	~0.02	0.15	0.098	29.9	~0.01	21.8		
anti-BCMA IgG antibody 5A6 (antibody, V domains shown, also called 5A6 WT; 5A6 antibody) VH: EVQLLESGGGLVQPGGSLRLSCAASGFTFSNYGVHWVRQAPGKGLEWVSYISYSGGTYYNPSLKSRFTISRDNSKNTLYLQMNSLRAEDTAVYYCARDSDDFGFDYWGQGTLVTVSS VL: QSVLTQPPSASGTPGQRVTISCQGDSLRSYYVNWYQQLPGTAPKLLIYDHSKRPTGVPDRFSGSKSGTSASLAISGLRSEDEADYYCQSYDSSTVVFGGGTKLTVLG	~0.02				100		54.7	no binding (tested: about 30 µg/ml)	no binding (tested: about 30 µg/ml)
